Source: patent publication US20250034271A1 (EUCURE BEIJING BIOPHARMA, published 2025)

T1: mouse CD40 (mCD40) on transfected CHO cells (mouse, UniProt P27512 20-289)
T1 sequence: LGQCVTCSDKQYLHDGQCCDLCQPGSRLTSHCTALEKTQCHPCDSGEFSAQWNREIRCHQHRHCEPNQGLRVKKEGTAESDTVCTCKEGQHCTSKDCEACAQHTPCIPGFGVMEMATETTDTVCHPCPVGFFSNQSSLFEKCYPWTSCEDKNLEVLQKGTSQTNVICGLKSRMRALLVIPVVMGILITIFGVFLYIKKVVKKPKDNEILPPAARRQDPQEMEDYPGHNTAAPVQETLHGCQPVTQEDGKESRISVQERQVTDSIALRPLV

T2: monkey (rhesus macaque) CD40 (rmCD40) on transfected CHO cells (rhesus macaque, UniProt P25942 21-277 (human entry))
T2 construct: also called monkey CD40
T2 chain: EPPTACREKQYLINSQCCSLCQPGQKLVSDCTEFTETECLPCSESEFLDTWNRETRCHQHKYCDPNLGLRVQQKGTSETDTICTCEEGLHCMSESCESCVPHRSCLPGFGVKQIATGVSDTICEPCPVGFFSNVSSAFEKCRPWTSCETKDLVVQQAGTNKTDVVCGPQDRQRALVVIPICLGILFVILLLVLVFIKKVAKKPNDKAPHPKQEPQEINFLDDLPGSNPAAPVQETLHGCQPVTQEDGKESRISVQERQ

B1: mouse anti-hCD40 antibody 03-7F10 (antibody, V domains shown)
VH: EVKLVESGGGLVQPGGSLKLSCATSGFTFSDYYMYWVRQTPEKRLEWVAYISYGGDSTFYPDTVRGRFTISRDNAKNALYLQMSRLKSEDTAVYYCARPAPSAHSYYLDYWGQGTTLTVSS
VL: DIQMTQTTSSLSASLGDRVTISCRASQDISNYLNWYQQKPDGTVKLLIYYTSRLHSGLPSRFSGSGSGTDYSLTISNLEQEDIATYYCQQGKTLPFTFASGTKLEIK
notes: Mouse antibody purified from ascites
B2: mouse anti-hCD40 antibody 06-6A7 (antibody, V domains shown)
VH: QVQLQQPGAELVKPGASVKLSCKASGYTFISYYIYWVKQRPGQGLEWIGGINPRNGGTNFNEKFKSKATLTVDKSSSTAYMQLSSLTSEDSAVYYCTRHGNGVYWGQGTTLTVSS
VL: DVVMTQTPLSLPVSLGDQASISCRSSQSLLHSNGNTYLHWYLQKPGQSPNHLIYQVSNRFSGVPDRFSGSGSGTDFTLKISRVEAEDLGVYFCSQTTHVPWTFGGGTKLEIK
notes: as for B1

What was measured:
[1] = biological target: T1, mouse CD40 (mCD40) on transfected CHO …; assay: flow cytometry, CHO-mCD40 cells, antibody 1 µg/ml, anti-mIgG Fc-FITC; x: Anti-mouse-IgG-Fc-FITC, y: SSC-H
Description: (§1) 25 μl CHO cells were added to each well. 25 μl purified anti-hCD40 antibodies (1 μg/ml) (7F10, 6A7, or 4H6) were added to each well and were incubated at 4° C. for 30 minutes.
(§2) After being washed with PBS (1200 rmp, 5 min) twice, 50 μl of FITC labeled anti-mouse IgG Fc antibody (anti-mIgG Fc-FITC) was added into each well 1:100 dilution, followed by incubated at 4° C. for 30 minutes, and then PBS wash (1200 rmp, 5 min). The signals for FITC were detected by flow cytometry.

[2] = biological target: T3, human CD40 (hCD40) on transiently transfected CHO cells (human, UniProt P25942 21-277); assay: flow cytometry, CHO cells with hCD40, antibody titrated then hCD40L-hFc added (blocked ligand: hCD40L-hFc); y: hCD40 Ligand-hFc, x: Anti-mouse-IgG-Fc-PE
T3 construct: also called TNF Receptor Superfamily Member 5; TNFRSF5
Description: The anti-hCD40 antibodies were collected from mouse ascites fluid and purified by chromatography. 25 μl CHO cells transiently transfected with human CD40 were added to each well in a plate. The purified antibodies were titrated to final concentrations of 50, 5, 0.5, 0.05, and 0.005 μg/ml. The titrated antibodies were added to each well at 25 μl per well at 4° C. and incubated for 30 minutes.
hCD40 ligand-hFc was expressed by H293T cells. 50 μl of hCD40L-hFc was added to each well (1:500). The cells with hCD40L-hFc and the antibodies were incubated at 4° C. for 15 minutes.
After being washed with phosphate-buffered saline (PBS) twice, 50 μl of PE labeled anti-mouse IgG Fc antibody (anti-mIgG Fc-PE) at 1:500 dilution and FITC-labeled anti-human IgG Fc antibody (anti-hIgG Fc-FITC) at 1:100 dilution were added into each well, and incubated for 30 minutes at 4° C., followed by PBS wash. The signals for FITC and PE were determined by flow cytometry.

[3] = biological target: T4, chimeric (mouse and human) CD40 (chiCD40) on transfected CHO cells (chimeric (mouse and human)); assay: flow cytometry, CHO-chiCD40 cells, antibody 1 µg/ml, anti-mIgG Fc-FITC; x: Anti-mouse-IgG-Fc-FITC, y: SSC-H
T4 construct: also called human-mouse chimeric CD40; chimeric CD40
Description: as §1, §2

[4] = biological target: T1, mouse CD40 (mCD40) on transfected CHO …; assay: flow cytometry, CHO-mCD40 cells, anti-mIgG Fc-FITC
Description: as §1, §2

[5] = biological target: T2, monkey (rhesus macaque) CD40 (rmCD40) …; assay: flow cytometry, CHO-rmCD40 cells, antibody 1 µg/ml, anti-mIgG Fc-FITC; x: Anti-mouse-IgG-Fc-FITC, y: SSC-H
Description: as §1, §2

Row | Binder | % cells in the Anti-mouse-IgG-Fc-FITC positive gate [1] [%] | % cells lower left (ligand- / antibody-) at 0.005µg/mL [2] [%] | % cells lower left (ligand- / antibody-) at 0.05µg/mL [2] [%] | % cells lower left (ligand- / antibody-) at 0.5µg/mL [2] [%] | % cells lower left (ligand- / antibody-) at 5µg/mL [2] [%] | % cells lower left (ligand- / antibody-) at 50µg/mL [2] [%] | % cells lower right (ligand- / antibody+) at 0.005µg/mL [2] [%] | % cells lower right (ligand- / antibody+) at 0.05µg/mL [2] [%] | % cells lower right (ligand- / antibody+) at 0.5µg/mL [2] [%] | % cells lower right (ligand- / antibody+) at 5µg/mL [2] [%] | % cells lower right (ligand- / antibody+) at 50µg/mL [2] [%] | % cells upper left (ligand+ / antibody-) at 0.005µg/mL [2] [%] | % cells upper left (ligand+ / antibody-) at 0.05µg/mL [2] [%] | % cells upper left (ligand+ / antibody-) at 0.5µg/mL [2] [%] | % cells upper left (ligand+ / antibody-) at 5µg/mL [2] [%] | % cells upper left (ligand+ / antibody-) at 50µg/mL [2] [%] | % cells upper right (ligand+ / antibody+) at 0.005µg/mL [2] [%] | % cells upper right (ligand+ / antibody+) at 0.05µg/mL [2] [%] | % cells upper right (ligand+ / antibody+) at 0.5µg/mL [2] [%] | % cells upper right (ligand+ / antibody+) at 5µg/mL [2] [%] | also measured
1 | B1 | 0.674 | 42.7 | 9.95 | 7.02 | 12.9 | 12.8 | 1.99 | 32.1 | 47.7 | 78.8 | 78.1 | 4.03 | 0 | 0.056 | 0 | 0 | 51.3 | 57.9 | 45.2 | 8.35 | % cells upper right (ligand+ / antibody+) at 50µg/mL [2]: 9.09%; % cells in the Anti-mouse-IgG-Fc-FITC positive gate [3]: 82.4%; binding result [4]: no binding; % cells in the Anti-mouse-IgG-Fc-FITC positive gate [5]: 82.6%
2 | B2 | 1.16 | 41.2 | 14.9 | 3.18 | 6.37 | 7.92 | 4.1 | 31.6 | 45.1 | 67.8 | 69.7 | 1.44 | 0 | 0 | 0 | 0.108 | 53.2 | 53.5 | 51.7 | 25.9 | % cells upper right (ligand+ / antibody+) at 50µg/mL [2]: 22.3%; % cells in the Anti-mouse-IgG-Fc-FITC positive gate [3]: 94.6%; binding result [4]: no binding; % cells in the Anti-mouse-IgG-Fc-FITC positive gate [5]: 96.4%
